Experimental findings from article doi:10.1101/2025.11.11.685192 (bioRxiv, 2025) are described below.

The target of series [1] is full-length gp130 ΔSY with additional D4-D6 deletion (gp130 ΔSYΔ(D4-D6)) (human) (UniProt P40189). Description: cryo-EM structure.
Series [2] has as its target full-length gp130 ΔSY with an additional D1 deletion (gp130 ΔSYΔD1) (human) (UniProt P40189). Description: cryo-EM structure.
In series [3] the target is gp130 D215G mutant, soluble extracellular domain (gp130 D215G ECD) (human). Description: cryo-EM structure.
Series [4] concerns the target gp130 S187-Y190 deletion mutant, soluble extracellular domain (gp130 ΔSY ECD) (human). Put plainly: cryo-EM structure.
For series [5] the target is unchanged. Put plainly: SEC + SEC-MALS + native gel or EMSA. A general note: Mobility shift assays separate free from complexed probe on a gel.
Series [6] deals with gp130 V252G mutant, soluble extracellular domain (gp130 V252G ECD) (human). Put plainly: cryo-EM structure.
The series “cryo-EM structure” concerns the molecule itself. Description: cryo-EM structure.
The series “native gel or EMSA” deals with the molecule itself. Put plainly: native gel or EMSA.

The term stoichiometry N denotes the number of molecules, sites or subunits per partner or assembly. Regarding “full-length gp130 ΔSY with additional D4-D6 deletion (gp130 ΔSYΔ(D4-D6)) (from UniProt P40189 23-918) (receptor)”, the stoichiometry N in series [1] was determined as 2. For “full-length gp130 ΔSY with an additional D1 deletion (gp130 ΔSYΔD1) (from UniProt P40189 23-918) (receptor)”, the stoichiometry N in series [2] amounted to 2. In series [3], “gp130 D215G mutant, soluble extracellular domain (gp130 D215G ECD) (domain or fragment)” gave a stoichiometry N of 2. For “gp130 S187-Y190 deletion mutant, soluble extracellular domain (gp130 ΔSY ECD) (domain or fragment)”, the stoichiometry N in series [4] and in series [5] was 2 each time. With “gp130 V252G mutant, soluble extracellular domain (gp130 V252G ECD) (domain or fragment)”, in series [6], the stoichiometry N came to 2.

B1: full-length gp130 P216H mutant (receptor, human, UniProt P40189 23-918, looked up)
chain: ELLDPCGYISPESPVVQLHSNFTAVCVLKEKCMDYFHVNANYIVWKTNHFTIPKEQYTIINRTASSVTFTDIASLNIQLTCNILTFGQLEQNVYGITIISGLPPEKPKNLSCIVNEGKKMRCEWDGGRETHLETNFTLKSEWATHKFADCKAKRDTPTSCTVDYSTVYFVNIEVWVEAENALGKVTSDHINFDHVYKVKPNPPHNLSVINSEELSSILKLTWTNPSIKSVIILKYNIQYRTKDASTWSQIPPEDTASTRSSFTVQDLKPFTEYVFRIRCMKEDGKGYWSDWSEEASGITYEDRPSKAPSFWYKIDPSHTQGYRTVQLVWKTLPPFEANGKILDYEVTLTRWKSHLQNYTVNATKLTVNLTNDRYLATLTVRNLVGKSDAAVLTIPACDFQATHPVMDLKAFPKDNMLWVEWTTPRESVKKYILEWCVLSDKAPCITDWQQEDGTVHRTYLRGNLAESKCYLITVTPVYADGPGSPESIKAYLKQAPPSKGPTVRTKKVGKNEAVLEWDQLPVDVQNGFIRNYTIFYRTIIGNETAVNVDSSHTEYTLSSLTSDTLYMVRMAAYTDEGGKDGPEFTFTTPKFAQGEIEAIVVPVCLAFLLTTLLGVLFCFNKRDLIKKHIWPNVPDPSKSHIAQWSPHTPPRHNFNSKDQMYSDGNFTDVSVVEIEANDKKPFPEDLKSLDLFKKEKINTEGHSSGIGGSSCMSSSRPSISSSDENESSQNTSSTVQYSTVVHSGYRHQVPSVQVFSRSESTQPLLDSEERPEDLQLVDHVDGGDGILPRQQYFKQNCSQHESSPDISHFERSKQVSSVNEEDFVRLKQQISDHISQSCGSGQMKMFQEVSAADAFGPGTEGQVERFETVGMEAATDEGMPKSYLPQTVRQGGYMPQ
For the molecule B1, the “stoichiometry N” value in the series “cryo-EM structure” was 2.

B2: full-length gp130 A418-F421 deletion mutant (gp130 ΔAF) (receptor, human, UniProt P40189 23-918, looked up)
chain: ELLDPCGYISPESPVVQLHSNFTAVCVLKEKCMDYFHVNANYIVWKTNHFTIPKEQYTIINRTASSVTFTDIASLNIQLTCNILTFGQLEQNVYGITIISGLPPEKPKNLSCIVNEGKKMRCEWDGGRETHLETNFTLKSEWATHKFADCKAKRDTPTSCTVDYSTVYFVNIEVWVEAENALGKVTSDHINFDPVYKVKPNPPHNLSVINSEELSSILKLTWTNPSIKSVIILKYNIQYRTKDASTWSQIPPEDTASTRSSFTVQDLKPFTEYVFRIRCMKEDGKGYWSDWSEEASGITYEDRPSKAPSFWYKIDPSHTQGYRTVQLVWKTLPPFEANGKILDYEVTLTRWKSHLQNYTVNATKLTVNLTNDRYLATLTVRNLVGKSDAAVLTIPQATHPVMDLKAFPKDNMLWVEWTTPRESVKKYILEWCVLSDKAPCITDWQQEDGTVHRTYLRGNLAESKCYLITVTPVYADGPGSPESIKAYLKQAPPSKGPTVRTKKVGKNEAVLEWDQLPVDVQNGFIRNYTIFYRTIIGNETAVNVDSSHTEYTLSSLTSDTLYMVRMAAYTDEGGKDGPEFTFTTPKFAQGEIEAIVVPVCLAFLLTTLLGVLFCFNKRDLIKKHIWPNVPDPSKSHIAQWSPHTPPRHNFNSKDQMYSDGNFTDVSVVEIEANDKKPFPEDLKSLDLFKKEKINTEGHSSGIGGSSCMSSSRPSISSSDENESSQNTSSTVQYSTVVHSGYRHQVPSVQVFSRSESTQPLLDSEERPEDLQLVDHVDGGDGILPRQQYFKQNCSQHESSPDISHFERSKQVSSVNEEDFVRLKQQISDHISQSCGSGQMKMFQEVSAADAFGPGTEGQVERFETVGMEAATDEGMPKSYLPQTVRQGGYMPQ
In the case of B2, the “stoichiometry N” value in the series “cryo-EM structure” turned out to be 2.

B3: full-length gp130 E195-V196 deletion mutant (gp130 ΔEV) (receptor, human, UniProt P40189 23-918, looked up)
chain: ELLDPCGYISPESPVVQLHSNFTAVCVLKEKCMDYFHVNANYIVWKTNHFTIPKEQYTIINRTASSVTFTDIASLNIQLTCNILTFGQLEQNVYGITIISGLPPEKPKNLSCIVNEGKKMRCEWDGGRETHLETNFTLKSEWATHKFADCKAKRDTPTSCTVDYSTVYFVNIWVEAENALGKVTSDHINFDPVYKVKPNPPHNLSVINSEELSSILKLTWTNPSIKSVIILKYNIQYRTKDASTWSQIPPEDTASTRSSFTVQDLKPFTEYVFRIRCMKEDGKGYWSDWSEEASGITYEDRPSKAPSFWYKIDPSHTQGYRTVQLVWKTLPPFEANGKILDYEVTLTRWKSHLQNYTVNATKLTVNLTNDRYLATLTVRNLVGKSDAAVLTIPACDFQATHPVMDLKAFPKDNMLWVEWTTPRESVKKYILEWCVLSDKAPCITDWQQEDGTVHRTYLRGNLAESKCYLITVTPVYADGPGSPESIKAYLKQAPPSKGPTVRTKKVGKNEAVLEWDQLPVDVQNGFIRNYTIFYRTIIGNETAVNVDSSHTEYTLSSLTSDTLYMVRMAAYTDEGGKDGPEFTFTTPKFAQGEIEAIVVPVCLAFLLTTLLGVLFCFNKRDLIKKHIWPNVPDPSKSHIAQWSPHTPPRHNFNSKDQMYSDGNFTDVSVVEIEANDKKPFPEDLKSLDLFKKEKINTEGHSSGIGGSSCMSSSRPSISSSDENESSQNTSSTVQYSTVVHSGYRHQVPSVQVFSRSESTQPLLDSEERPEDLQLVDHVDGGDGILPRQQYFKQNCSQHESSPDISHFERSKQVSSVNEEDFVRLKQQISDHISQSCGSGQMKMFQEVSAADAFGPGTEGQVERFETVGMEAATDEGMPKSYLPQTVRQGGYMPQ
Consider B3, for which, in “cryo-EM structure”, the “stoichiometry N” value amounted to 2.

B4: full-length gp130 S187-Y190 deletion mutant (gp130 ΔSY full-length) (receptor, human, UniProt P40189 23-918, looked up)
chain: ELLDPCGYISPESPVVQLHSNFTAVCVLKEKCMDYFHVNANYIVWKTNHFTIPKEQYTIINRTASSVTFTDIASLNIQLTCNILTFGQLEQNVYGITIISGLPPEKPKNLSCIVNEGKKMRCEWDGGRETHLETNFTLKSEWATHKFADCKAKRDTPTSCTVDYFVNIEVWVEAENALGKVTSDHINFDPVYKVKPNPPHNLSVINSEELSSILKLTWTNPSIKSVIILKYNIQYRTKDASTWSQIPPEDTASTRSSFTVQDLKPFTEYVFRIRCMKEDGKGYWSDWSEEASGITYEDRPSKAPSFWYKIDPSHTQGYRTVQLVWKTLPPFEANGKILDYEVTLTRWKSHLQNYTVNATKLTVNLTNDRYLATLTVRNLVGKSDAAVLTIPACDFQATHPVMDLKAFPKDNMLWVEWTTPRESVKKYILEWCVLSDKAPCITDWQQEDGTVHRTYLRGNLAESKCYLITVTPVYADGPGSPESIKAYLKQAPPSKGPTVRTKKVGKNEAVLEWDQLPVDVQNGFIRNYTIFYRTIIGNETAVNVDSSHTEYTLSSLTSDTLYMVRMAAYTDEGGKDGPEFTFTTPKFAQGEIEAIVVPVCLAFLLTTLLGVLFCFNKRDLIKKHIWPNVPDPSKSHIAQWSPHTPPRHNFNSKDQMYSDGNFTDVSVVEIEANDKKPFPEDLKSLDLFKKEKINTEGHSSGIGGSSCMSSSRPSISSSDENESSQNTSSTVQYSTVVHSGYRHQVPSVQVFSRSESTQPLLDSEERPEDLQLVDHVDGGDGILPRQQYFKQNCSQHESSPDISHFERSKQVSSVNEEDFVRLKQQISDHISQSCGSGQMKMFQEVSAADAFGPGTEGQVERFETVGMEAATDEGMPKSYLPQTVRQGGYMPQ
For B4, the “stoichiometry N” value in the series “native gel or EMSA” is 2.

B5: full-length gp130 K173-D177 deletion mutant (gp130 ΔKD) (receptor, human, UniProt P40189 23-918, looked up)
chain: ELLDPCGYISPESPVVQLHSNFTAVCVLKEKCMDYFHVNANYIVWKTNHFTIPKEQYTIINRTASSVTFTDIASLNIQLTCNILTFGQLEQNVYGITIISGLPPEKPKNLSCIVNEGKKMRCEWDGGRETHLETNFTLKSEWATHKFADCTPTSCTVDYSTVYFVNIEVWVEAENALGKVTSDHINFDPVYKVKPNPPHNLSVINSEELSSILKLTWTNPSIKSVIILKYNIQYRTKDASTWSQIPPEDTASTRSSFTVQDLKPFTEYVFRIRCMKEDGKGYWSDWSEEASGITYEDRPSKAPSFWYKIDPSHTQGYRTVQLVWKTLPPFEANGKILDYEVTLTRWKSHLQNYTVNATKLTVNLTNDRYLATLTVRNLVGKSDAAVLTIPACDFQATHPVMDLKAFPKDNMLWVEWTTPRESVKKYILEWCVLSDKAPCITDWQQEDGTVHRTYLRGNLAESKCYLITVTPVYADGPGSPESIKAYLKQAPPSKGPTVRTKKVGKNEAVLEWDQLPVDVQNGFIRNYTIFYRTIIGNETAVNVDSSHTEYTLSSLTSDTLYMVRMAAYTDEGGKDGPEFTFTTPKFAQGEIEAIVVPVCLAFLLTTLLGVLFCFNKRDLIKKHIWPNVPDPSKSHIAQWSPHTPPRHNFNSKDQMYSDGNFTDVSVVEIEANDKKPFPEDLKSLDLFKKEKINTEGHSSGIGGSSCMSSSRPSISSSDENESSQNTSSTVQYSTVVHSGYRHQVPSVQVFSRSESTQPLLDSEERPEDLQLVDHVDGGDGILPRQQYFKQNCSQHESSPDISHFERSKQVSSVNEEDFVRLKQQISDHISQSCGSGQMKMFQEVSAADAFGPGTEGQVERFETVGMEAATDEGMPKSYLPQTVRQGGYMPQ
On to B5, for which, in “cryo-EM structure”, the “stoichiometry N” value was found to be 2.
